These results are taken from patent KR20200019669A.

Assay [1] has as its target 인간 CD38 (human CD38, full length, on cells) (human) (UniProt P28907). As to the kind of experiment: cell-based or functional assay.
In assay [2] the target is his 태그가 부착된 재조합 인간 CD38 (recombinant human CD38 extracellular domain, His-tagged) (human) (UniProt P28907). Kind of assay: ForteBio (BLI), 1:1 fit.

Regarding 다라투무맙 (daratumumab) (antibody), the CD38 시클라제 활성 억제 in assay [1] was found to be 70%.

Usually Kd stands for the constant that tells how readily two partners part at equilibrium. With IB4 (antibody), the Kd in assay [2] worked out at 9 nM.
